Where a SMILES comes first, the peptide text is derived from it. Bridges are numbered along the chain shown (N, C = ends). The star is where a group is joined. DOTA = O=C(O)CN1CCN(CC(=O)O)CCN(CC(=O)*)CCN(CC(=O)O)CC1
Columns and labels:
[1] = system: recurrent hypopharynx carcinoma; settings: human, in vivo
Experimental: (§1) The PET/CT scan was performed 1 and 3 hours post tracer administration with a Biograph mCT Flow™ PET/CT-Scanner (Siemens Medical Solution) using the following parameters: slice thickness of 5 mm, increment of 3-4 mm, soft-tissue reconstruction kernel, care dose Immediately after CT scanning, a whole-body PET was acquired in 3D (matrix 200×200) in FlowMotion™ with 0.7 cm/min. The emission data were corrected for random, scatter and decay. Reconstruction was conducted with an ordered subset expectation maximisation (OSEM) algorithm with 2 iterations/21 subsets and Gauss-filtered to a transaxial resolution of 5 mm at full-width half-maximum (FWHM). Attenuation correction was performed using the low-dose non-enhanced CT data. The quantitative assessment of standardized uptake values (SUV) was done using a region of interest technique.

[2] = system: NSCLC; settings: human, in vivo
Experimental: as §1

[3] = in vivo; settings: Balb/c nude, mouse, iv, total radioactivity
Experimental: (§2) All experiments were conducted in compliance with the German animal protection laws. Eight week old Balb c/c nude mice (Charles River Laboratories) were inoculated subcutaneously at the right shoulder with 5×10^6 HNO97 cells in BD MatriGel™ (BD Bioscience). Xenografts were grown to a tumor diameter of 10-15 mm. For small animal-PET imaging mice were anesthetized using isoflurane inhalation and injected via tail-vein with 50 MBq (2 nmol) of the ^68Ga-labeled DOTA-SFITGv6 peptide (see above) solution in 100 μL PBS. Images were recorded on an Inveon small-animal PET scanner (Siemens) using a 60 min emission scan in list mode and a 10 min transmission scan. Images were taken in 3-dimensional (3D) mode and reconstructed iteratively with a fully 3D algorithm from a 256×256 matrix for viewing transaxial, coronal, and sagittal slices of 0.9 mm thickness. Pixel size was 0.38×0.38×0.79 mm3 and transaxial resolution obtained was 0.9 mm. For blocking experiments 100 μL of a 1 mM aqueous solution of SFITGv6 was pre-administered intraperitoneally 30 min before injection of the radiolabeled peptide. Biodistribution studies were performed after administration of 100 μL of a 20 nM ^177Lu-DOTA-SFITGv6 solution (1 MBq) as an intravenous bolus injection into the tail vein of the mice. After different time points (30 min to 6 hours) three animals, respectively, were sacrificed. Peripheral blood, heart, lung, spleen, liver, kidneys, muscle, brain, intestine, and injection site (tail, after intravenous injection only) were collected and weighted. Tissue-associated radioactivity was measured in a gamma counter (Berthold LB951G) and expressed as percentage of the injected dose per gram tissue (% ID/g).
(§3) All animal experiments were conducted in compliance with the German animal protection laws. For in vivo small animal PET imaging and organ distribution studies eight-week old Balb/c nude mice (Charles River Laboratories) were inoculated subcutaneously at the right shoulder with a total of 5×10^6 tumor cells in MatriGel (BD Bioscience). Xenografts were grown until a tumor diameter of 10-15 mm was reached.
(§4) 3-dimensional (3D) PET images of whole mice were captured by the Siemens Inveon PET scanner as described in Example 1. To assess the biodistribution 100 μL of a 20 nM solution (1 MBq) of ^177Lu-DOTA-SFLAP3 and ^177Lu-DOTA-SFITGv6 were administered as an intravenous bolus injection into the tail vein of mice. For each time point (30 min to 6 hours) we sacrificed a total of three animals, and subsequently collected peripheral blood, heart, lung, spleen, liver, kidneys, muscle, brain, and intestine. Tissues were weighed and respective radioactivity was measured by a gamma counter (LB951G, Berthold Technologies). Values were expressed as percentage of the injected dose radioactivity (MBq) per gram tissue (% ID/g).

[4] = system: HNO97 xenografts; test: in vivo; settings: mouse
Experimental: as §2, §3, §4

[5] = Small-animal PET imaging, HNO223 xenografts; set-up: species or system mice; settings: Balb/c nude, mouse, in vivo, iv, total radioactivity
[6] = Small-animal PET imaging, HNO399 xenografts; set-up: species or system mice; settings: Balb/c nude, mouse, in vivo, iv, total radioactivity

SMILES: CSCC[C@@H]1NC(=O)[C@H](CC(C)C)NC(=O)[C@H](CC(=O)O)NC(=O)CNC(=O)[C@H](CCCNC(=N)N)NC(=O)[C@H](Cc2ccccc2)NC(=O)[C@H]([C@@H](C)O)NC(=O)[C@@H](NC(=O)[C@H](CCCNC(=N)N)NC(=O)CNC(=O)CN2CCN(CC(=O)O)CCN(CC(=O)O)CCN(CC(=O)O)CC2)CSSC[C@@H](C(=O)N[C@@H](Cc2ccc(O)cc2)C(=O)N2CCC[C@H]2C(=O)N[C@@H](CC(=O)O)C(=O)O)NC(=O)[C@H](CC(C)C)NC(=O)[C@H](CCC(N)=O)NC1=O [^68Ga-DOTA-SFITGv6, metal not drawn] ({DOTA}-GRCTFRGDLMQLCYPD-OH; disulfide 3-13)
- SUVmax Elbow [1]: 1.70
- SUVmax Gallbladder [1]: 1.90
- SUVmax Hilar [1]: 1.00
- SUVmax Shoulder [2]: 1.50
- SUV at 1 h [3]: 0.68 SUV
- time after injection until radioactivity accumulated in the tumor [4]: ≤ 20 min
- time for which tumor accumulation was maintained [4]: at least 140 min
- time of clearance of non-specific activity from the blood [4]: ≤ 60 min
- SUV at 1 h [5]: 0.23 SUV
- SUV at 1 h [6]: 0.33 SUV

Source: US20200131227A1, “POLYPEPTIDE WITH TUMOUR BINDING ACTIVITY” (RUPRECHT-KARLS-UNIVERSITÄT HEIDELBERG, priority 2017, published 2020)
